In patent US20240261333A1, “NOVEL TARGETS FOR ENHANCING ANTI-TUMOR IMMUNITY” (THE BROAD INSTITUTE, INC., priority 2021, published 2024):

T1: B3GNT2 (Homo sapiens, UniProt Q9NY97)
T1 construct: The respective ORFs of candidate genes [CD274 (NM_014143), MCL1 (NM_021960), JUNB (NM_002229), and B3GNT2 (NM_006577)] were synthesized; expressed in transfected cells; host or cells: A375 melanoma cells (lentiviral ORF overexpression)
T1 sequence (Q9NY97 1-397): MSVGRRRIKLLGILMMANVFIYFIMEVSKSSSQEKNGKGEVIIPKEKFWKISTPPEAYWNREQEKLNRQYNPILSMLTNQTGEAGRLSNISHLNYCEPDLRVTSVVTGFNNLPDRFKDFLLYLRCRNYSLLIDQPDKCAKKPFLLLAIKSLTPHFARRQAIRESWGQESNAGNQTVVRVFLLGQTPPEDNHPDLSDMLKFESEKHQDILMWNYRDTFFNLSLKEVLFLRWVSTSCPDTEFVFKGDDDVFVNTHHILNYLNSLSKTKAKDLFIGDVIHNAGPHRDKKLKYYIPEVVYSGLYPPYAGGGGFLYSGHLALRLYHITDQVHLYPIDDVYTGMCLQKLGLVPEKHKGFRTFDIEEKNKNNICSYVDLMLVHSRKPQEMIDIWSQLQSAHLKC


Target: T1, B3GNT2
Assay: Co-IP of FLAG-tagged B3GNT2 followed by mass spectrometry
Assay type: cell-based
Parameters: C-term IgG / C-term flag: unit not given here
Conditions: Co-IP followed by mass spectrometry of B3GNT2; for C-term flag / C-term IgG: C-term tag; for C-term flag / N-term FLAG: FLAG pull-down; for C-term IgG / N-term IgG: IgG pull-down; for N-term FLAG / N-term IgG: N-term tag
Procedure: Cells were plated in 10-cm cell culture dishes and grown to 60-80% confluency. For each condition, two biological replicates were harvested for co-IP. Cells were washed with PBS and 4 mL of lysis buffer (20 mM HEPES, 1% Triton X-100, 150 mM NaCl, 1 mM EDTA, and 10% glycerol) containing protease inhibitor cocktail was added. Cells were scraped and lysate was incubated at 4° C. under rotary agitation for 1 h. Lysate was centrifuged at 14,000×g for 10 min at 4° C. Supernatant was transferred to a new tube and an aliquot was taken as the input. […] For Western blots, 10 μg/mL Chicken Anti-FLAG (Aves labs ET-DY100) and IgY control (R&D Systems AB-101-C) antibodies were biotinylated (Thermo Fisher Scientific 90407) and added to the respective conditions. Lysates with antibodies were incubated at 4° C. under rotary agitation overnight. For each mL of lysate, 50 μL of Pierce Protein A/G Magnetic Beads (Mass spectrometry; Thermo Fisher Scientific 88803) or Pierce Streptavidin Magnetic Beads (Western blot; Thermo Fisher Scientific 88817) was washed twice with lysis buffer. Lysates with antibodies were added to the beads and incubated at 4° C. under rotary agitation for 4 h. Beads were washed with lysis buffer 3 times and resuspended in lysis buffer for storage. […] This solution was subjected to solid phase extraction to concentrate the peptides and remove unwanted reagents followed by injection onto a Shimadzu HPLC with fraction collector. Eight fractions were collected and after concentration were injected on a Waters NanoAcquity HPLC equipped with a self-packed Aeris 3 μm C18 analytical column 0.075 mm by 20 cm, (Phenomenex). Peptides were eluted using standard reverse-phase gradients. The effluent from the column was analyzed using a Thermo Orbitrap Elite mass spectrometer (nanospray configuration) operated in a data dependent manner for 54 minutes. […] Scaffold Q+S (Proteome Software) was used to provide consensus reports for the identified proteins.

Molecule | C-term flag | C-term IgG | N-term FLAG | N-term IgG
IMMT (protein) STSGSSGLTTGKIAGAGLLFVGGGIGGTILYAKWDSHFRESVEKTIPYSDKLFEMVLGPAAYNVPLPKKSIQSGPLKISSVSEVMKESKQPASQLQKQKGDTPASATAPTEAAQIISAAGDTLSVPAPAVQPEESLKTDHPEIGEGKPTPALSEASSSSIRERPPEEVAARLAQQEKQEQVKIESLAKSLEDALRQTASVTLQAIAAQNAAVQAVNAHSNILKAAMDNSEIAGEKKSAQWRTVEGALKERRKAVDEAADALLKAKEELEKMKSVIENAKKKEVAGAKPHITAAEGKLHNMIVDLDNVVKKVQAAQSEAKVVSQYHELVVQARDDFKRELDSITPEVLPGWKGMSVSDLADKLSTDDLNSLIAHAHRRIDQLNRELAEQKATEKQHITLALEKQKLEEKRAFDSAVAKALEHHRSEIQAEQDRKIEEVRDAMENEMRTQLRRQAAAHTDHLRDVLRVQEQELKSEFEQNLSEKLSEQELQFRRLSQEQVDNFTLDINTAYARLRGIEQAVQSHAVAEEEARKAHQLWLSVEALKYSMKTSSAETPTIPLGSAVEAIKANCSDNEFTQALTAAIPPESLTRGVYSEETLRARFYAVQKLARRVAMIDETRNSLYQYFLSYLQSLLLFPPQQLKPPPELCPEDINTFKLLSYASYCIEHGDLELAAKFVNQLKGESRRVAQDWLKEARMTLETKQIVEILTAYASAVGIGTTQVQPE | 26 | 16 | 23 | 17
TXN (protein) VKQIESKTAFQEALDAAGDKLVVVDFSATWCGPCKMIKPFFHSLSEKYSNVIFLEVDVDDCQDVASECEVKCMPTFQFFKKGQKVGEFSGANKEKLEATINELV | 3 | 0 | 3 | 3
IL13RA2 (protein) DTEIKVNPPQDFEIVDPGYLGYLYLQWQPPLSLDHFKECTVEYELKYRNIGSETWKTIITKNLHYKDGFDLNKGIEAKIHTLLPWQCTNGSEVQSSWAETTYWISPQGIPETKVQDMDCVYYNWQYLLCSWKPGIGVLLDTNYNLFYWYEGLDHALQCVDYIKADGQNIGCRFPYLEASDYKDFYICVNGSSENKPIRSSYFTFQLQNIVKPLPPVYLTFTRESSCEIKLKWSIPLGPIPARCFDYEIEIREDDTTLVTATVENETYTLKTTNETRQLCFVVRSKVNIYCSDDGIWSEWSDKQCWEGEDLSKKTLLRFWLPFGFILILVIFVTGLLLRKPNTYPKMIPEFFCDT | 2 | 0 | 3 | 0

The next lines start with the values.

C-term flag | C-term IgG | N-term FLAG | N-term IgG | Molecule
5 | 0 | 0 | 0 | MAP4 (protein, UniProt P27816 2-1152, looked up) Microtubule-associated …: ADLSLADALTEPSPDIEGEIKRDFIATLEAEAFDDVVGETVGKTDYIPLLDVDEKTGNSESKKKPCSETSQIEDTPSSKPTLLANGGHGVEGSDTTGSPTEFLEEKMAYQEYPNSQNWPEDTNFCFQPEQVVDPIQTDPFKMYHDDDLADLVFPSSATADTSIFAGQNDPLKDSYGMSPCNTAVVPQGWSVEALNSPHSESFVSPEAVAEPPQPTAVPLELAKEIEMASEERPPAQALEIMMGLKTTDMAPSKETEMALAKDMALATKTEVALAKDMESPTKLDVTLAKDMQPSMESDMALVKDMELPTEKEVALVKDVRWPTETDVSSAKNVVLPTETEVAPAKDVTLLKETERASPIKMDLAPSKDMGPPKENKKETERASPIKMDLAPSKDMGPPKENKIVPAKDLVLLSEIEVAQANDIISSTEISSAEKVALSSETEVALARDMTLPPETNVILTKDKALPLEAEVAPVKDMAQLPETEIAPAKDVAPSTVKEVGLLKDMSPLSETEMALGKDVTPPPETEVVLIKNVCLPPEMEVALTEDQVPALKTEAPLAKDGVLTLANNVTPAKDVPPLSETEATPVPIKDMEIAQTQKGISEDSHLESLQDVGQSAAPTFMISPETVTGTGKKCSLPAEEDSVLEKLGERKPCNSQPSELSSETSGIARPEEGRPVVSGTGNDITTPPNKELPPSPEKKTKPLATTQPAKTSTSKAKTQPTSLPKQPAPTTIGGLNKKPMSLASGLVPAAPPKRPAVASARPSILPSKDVKPKPIADAKAPEKRASPSKPASAPASRSGSKSTQTVAKTTTAAAVASTGPSSRSPSTLLPKKPTAIKTEGKPAEVKKMTAKSVPADLSRPKSTSTSSMKKTTTLSGTAPAAGVVPSRVKATPMPSRPSTTPFIDKKPTSAKPSSTTPRLSRLATNTSAPDLKNVRSKVGSTENIKHQPGGGRAKVEKKTEAAATTRKPESNAVTKTAGPIASAQKQPAGKVQIVSKKVSYSHIQSKCGSKDNIKHVPGGGNVQIQNKKVDISKVSSKCGSKANIKHKPGGGDVKIESQKLNFKEKAQAKVGSLDNVGHLPAGGAVKTEGGGSEAPLCPGPPAGEEPAISEAAPEAGAPTSASGLNGHPTLSGGGDQREAQTLDSQIQETSI
0 | 0 | 5 | 0 | POF1B (protein) MSSSYWSETSSSSCGTQQLPEVLQCQPQHYHCYHQSSQAQQPPEKNVVYERVRTYSGPMNKVVQALDPFNSREVLSPLKTTSSYQNLVWSDHSQELHSPTLKISTCAPSTLHITQNTEQELHSPTVKLTTYPQTTIRKYVVQNPEQEPLSQFLRGSHFFPGNNVIYEKTIRKVEKLNTDQGCHPQAQCHHHIIQQPQVIHSAHWQQPDSSQQIQAITGNNPISTHIGNELCHSGSSQICEQVIIQDDGPEKLDPRYFGELLADLSRKNTDLYHCLLEHLQRIGGSKQDFESTDESEDIESLIPKGLSEFTKQQIRYILQMRGMSDKSLRLVLSTFSNIREELGHLQNDMTSLENDKMRLEKDLSFKDTQLKEYEELLASVRANNHQQQQGLQDSSSKCQALEENNLSLRHTLSDMEYRLKELEYCKRNLEQENQNLRMQVSETCTGPMLQAKMDEIGNHYTEMVKNLRMEKDREICRLRSQLNQYHKDVSKREGSCSDFQFKLHELTSLLEEKDSLIKRQSEELSKLRQEIYSSHNQPSTGGRTTITTKKYRTQYPILGLLYDDYEYIPPGSETQTIVIEKTEDKYTCVSSLGHF
3 | 0 | 2 | 0 | KCTD5 (protein) AENHCELLSPARGGIGAGLGGGLCRRCSAGLGALAQRPGSVSKWVRLNVGGTYFLTTRQTLCRDPKSFLYRLCQADPDLDSDKDETGAYLIDRDPTYFGPVLNYLRHGKLVINKDLAEEGVLEEAEFYNITSLIKLVKDKIRERDSKTSQVPVKHVYRVLQCQEEELTQMVSTMSDGWKFEQLVSIGSSYNYGNEDQAEFLCVVSKELHNTPYGTASEPSEKAKILQERGSRM
0 | 0 | 5 | 0 | CDSN (protein) KSIGTFSDPCKDPTRITSPNDPCLTGKGDSSGFSSYSGSSSSGSSISSARSSGGGSSGSSSGSSIAQGGSAGSFKPGTGYSQVSYSSGSGSSLQGASGSSQLGSSSSHSGNSGSHSGSSSSHSSSSSSFQFSSSSFQVGNGSALPTNDNSYRGILNPSQPGQSSSSSQTFGVSSSGQSVSSNQRPCSSDIPDSPCSGGPIVSHSGPYIPSSHSVSGGQRPVVVVVDQHGSGAPGVVQGPPCSNGGLPGKPCPPITSVDKSYGGYEVVGGSSDSYLVPGMTYSKGKIYPVGYFTKENPVKGSPGVPSFAAGPPISEGKYFSSNPIIPSQSAASSAIAFQPVGTGGVQLCGGGSTGSKGPCSPSSSRVPSSSSISSSSGLPYHPCGSASQSPCSPPGTGSFSSSSSSQSSGKIILQPCGSKSSSSGHPCMSVSSLTLTGGPDGSPHPDPSAGAKPCGSSSAGKIPCRSIRDILAQVKPLGPQLADPEVFLPQGELLNSP
3 | 0 | 2 | 0 | TAGLN (protein) ANKGPSYGMSREVQSKIEKKYDEELEERLVEWIIVQCGPDVGRPDRGRLGFQVWLKNGVILSKLVNSLYPDGSKPVKVPENPPSMVFKQMEQVAQFLKAAEDYGVIKTDMFQTVDLFEGKDMAAVQRTLMALGSLAVTKNDGHYRGDPNWFMKKAQEHKREFTESQLQEGKHVIGLQMGSNRGASQAGMTGYGRPRQIIS
